In article PMC8133684, “The URL1–ROC5–TPL2 transcriptional repressor complex represses the ACL1 gene to modulate leaf rolling in rice”:

T1: GST-URL1 (ROC8) (Oryza sativa L., UniProt Q69T58 1-710)
T1 sequence: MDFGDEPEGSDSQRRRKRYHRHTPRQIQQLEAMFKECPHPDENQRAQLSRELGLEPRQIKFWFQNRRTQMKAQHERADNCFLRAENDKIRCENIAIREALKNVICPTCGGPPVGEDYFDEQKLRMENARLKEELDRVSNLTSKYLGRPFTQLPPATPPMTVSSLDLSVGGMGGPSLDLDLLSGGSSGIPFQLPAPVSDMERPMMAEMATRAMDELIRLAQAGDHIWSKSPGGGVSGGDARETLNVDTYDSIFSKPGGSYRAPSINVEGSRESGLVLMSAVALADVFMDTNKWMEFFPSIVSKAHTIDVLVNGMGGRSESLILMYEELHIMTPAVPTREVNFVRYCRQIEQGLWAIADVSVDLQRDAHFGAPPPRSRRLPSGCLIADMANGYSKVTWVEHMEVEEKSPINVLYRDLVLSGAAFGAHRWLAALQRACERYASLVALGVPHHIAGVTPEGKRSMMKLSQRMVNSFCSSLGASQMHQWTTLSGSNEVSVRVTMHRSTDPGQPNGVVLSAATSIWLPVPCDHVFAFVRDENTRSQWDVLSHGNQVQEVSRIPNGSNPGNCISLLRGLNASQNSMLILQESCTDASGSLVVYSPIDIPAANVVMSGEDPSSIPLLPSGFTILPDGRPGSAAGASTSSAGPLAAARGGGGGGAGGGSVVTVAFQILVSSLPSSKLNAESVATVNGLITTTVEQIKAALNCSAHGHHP


Columns and labels:
GST-URL1 (ROC8) [1] = molecular target: T1, GST-URL1 (ROC8); assay: EMSA; LightShift Chemiluminescent EMSA Kit; buffer, salt, pH and temperature not stated; settings: protein: recombinant; tags: N-terminal GST (pCold-GST); chain copies: 2; label: 3' biotin; blunt
GST-URL1 (ROC8) [2] = molecular target: T1, GST-URL1 (ROC8); assay: competition; 100-, 300-, 1000-fold excess vs labeled L1-box II probe; LightShift Chemiluminescent EMSA Kit; buffer, salt, pH and temperature not stated; settings: protein: recombinant; tags: N-terminal GST (pCold-GST); chain copies: 2; blunt
GST-URL1 (ROC8) [3] = molecular target: T1, GST-URL1 (ROC8); assay: competition; 100-, 300-, 1000-fold excess vs labeled L1-box I probe; LightShift Chemiluminescent EMSA Kit; buffer, salt, pH and temperature not stated; settings: protein: recombinant; tags: N-terminal GST (pCold-GST); chain copies: 2; blunt

| Binder | binding result (GST-URL1 (ROC8) [1]) | also measured |
| --- | --- | --- |
| mACL1 L1-box I (L1 box deleted) (dsDNA) DNA 1: ACCGACTAATGGCAATATAAAGATATACCATATCCTGTACTAAGCAATAACCTA DNA 2: TAGGTTATTGCTTAGTACAGGATATGGTATATCTTTATATTGCCATTAGTCGGT | no binding | – |
| ACL1 L1-box II unlabeled competitor (dsDNA) DNA 1: TTATCATAAAAGAAACTATAATATTAACTTATACATTTACATATTTATACTAAATTTTTAAATAAGGCAA DNA 2: TTGCCTTATTTAAAAATTTAGTATAAATATGTAAATGTATAAGTTAATATTATAGTTTCTTTTATGATAA | – | binding result (GST-URL1 (ROC8) [2]): binds |
| ACL1 L1-box I unlabeled competitor (dsDNA) DNA 1: CCGACTAATGGCAATATATACGTGCAAAGATACATTTATATACCATATCCTGTACTAAGCAATAACCTA DNA 2: TAGGTTATTGCTTAGTACAGGATATGGTATATAAATGTATCTTTGCACGTATATATTGCCATTAGTCGG | – | binding result (GST-URL1 (ROC8) [3]): binds |
| mACL1 L1-box II (L1 box deleted) (dsDNA) DNA 1: TTATCATAAAAGAAACTATAATATTAACTTACATTACTTTAAGGCAA DNA 2: TTGCCTTAAAGTAATGTAAGTTAATATTATAGTTTCTTTTATGATAA | no binding | – |
